Results taken from patent US20100003264A1, “Reduction of Ophthalmalogic Neovascularization” (WASHINGTON UNIVERSITY, priority 2005, published 2010).
Entries after “also recorded” stand apart in the source; their conditions may differ.

Test system: choroidal neovascularization
Experiment: laser-induced choroidal neovascularization in mice, volume of the neovascular complex
Format: in vivo
Settings: IL-10 knockout mice, IL-10 intravitreally on day of laser or three days after laser
Method: Volume of the neovascular complex was examined in IL-10 knockout mice. Knockout mice were purchased commercially (NCI, Frederick, Md.). All work was carried out per the ARVO guidelines for animal use in research. Rupture of Bruch's membrane with laser was used to initiate chorioretinal neovascularization in 5-7 week old mice as described in Nambu et al. ((2003) Invest Ophthalmol Vis Sci 44: 3650). Seven days after laser, the mice were anesthetized and perfused intraventricularly with fluorescein-labeled dextran. The mice were euthanized with CO2 inhalation and the eyes harvested for tissue processing. A dissecting microscope was used to remove the cornea and lens and gently separate the retina from the underlying choroid and sclera. Microscissors were used to make four radial incisions in the sclerochoroidal ‘eyecup’ in order to prepare choroidal flat mounts on glass slides. The tissues were incubated in 4% paraformaldehyde for 45 minutes and washed three times with 3% bovine serum albumin. […] The choroidal flat mounts were analyzed for presence of CNV by confocal microscopy. Extent of choroidal neovascularization was quantified by Metamorph™ imaging software. […]
Macrophages were used to proactively treat the formation of blood vessels in the eye. […] Choroidal neovascularization was analyzed on day 7. […]

B1: IL-10: cytokine produced by activated macrophages and some helper T cells; injected exogenously into eyes of IL-10 knockout mice (protein, UniProt P18893 19-178, looked up)
Interleukin-10: SRGQYSREDNNCTHFPVGQSHMLLELRTAFSQVKTFFQTKDQLDNILLTDSLMQDFKGYLGCQALSEMIQFYLVEVMPQAEKHGPEIKEHLNSLGEKLKTLRMRLRRCHRFLPCENKSKAVEQVKSDFNKLQDQGVYKAMNEFDIFINCIEAYMMIKMKS
- choroidal neovascularization (volume of the neovascular complex): reversed the inhibition choroidal neovascularization; also recorded: increased new vessel formation
- choroidal neovascularization (volume of the neovascular complex) (listed as Exogenous IL-10): reversed the inhibition choroidal neovascularization
